Numbering of substitutions follows the chain as printed. In names and notes the source's numbering stands.
T1: Factor VIIIa (FVIIIa), from recombinant FVIII (Kogenate FS; Bayer healthcare) activated with alpha-thrombin (UniProt P00451 20-2351)
T1 sequence (looked up): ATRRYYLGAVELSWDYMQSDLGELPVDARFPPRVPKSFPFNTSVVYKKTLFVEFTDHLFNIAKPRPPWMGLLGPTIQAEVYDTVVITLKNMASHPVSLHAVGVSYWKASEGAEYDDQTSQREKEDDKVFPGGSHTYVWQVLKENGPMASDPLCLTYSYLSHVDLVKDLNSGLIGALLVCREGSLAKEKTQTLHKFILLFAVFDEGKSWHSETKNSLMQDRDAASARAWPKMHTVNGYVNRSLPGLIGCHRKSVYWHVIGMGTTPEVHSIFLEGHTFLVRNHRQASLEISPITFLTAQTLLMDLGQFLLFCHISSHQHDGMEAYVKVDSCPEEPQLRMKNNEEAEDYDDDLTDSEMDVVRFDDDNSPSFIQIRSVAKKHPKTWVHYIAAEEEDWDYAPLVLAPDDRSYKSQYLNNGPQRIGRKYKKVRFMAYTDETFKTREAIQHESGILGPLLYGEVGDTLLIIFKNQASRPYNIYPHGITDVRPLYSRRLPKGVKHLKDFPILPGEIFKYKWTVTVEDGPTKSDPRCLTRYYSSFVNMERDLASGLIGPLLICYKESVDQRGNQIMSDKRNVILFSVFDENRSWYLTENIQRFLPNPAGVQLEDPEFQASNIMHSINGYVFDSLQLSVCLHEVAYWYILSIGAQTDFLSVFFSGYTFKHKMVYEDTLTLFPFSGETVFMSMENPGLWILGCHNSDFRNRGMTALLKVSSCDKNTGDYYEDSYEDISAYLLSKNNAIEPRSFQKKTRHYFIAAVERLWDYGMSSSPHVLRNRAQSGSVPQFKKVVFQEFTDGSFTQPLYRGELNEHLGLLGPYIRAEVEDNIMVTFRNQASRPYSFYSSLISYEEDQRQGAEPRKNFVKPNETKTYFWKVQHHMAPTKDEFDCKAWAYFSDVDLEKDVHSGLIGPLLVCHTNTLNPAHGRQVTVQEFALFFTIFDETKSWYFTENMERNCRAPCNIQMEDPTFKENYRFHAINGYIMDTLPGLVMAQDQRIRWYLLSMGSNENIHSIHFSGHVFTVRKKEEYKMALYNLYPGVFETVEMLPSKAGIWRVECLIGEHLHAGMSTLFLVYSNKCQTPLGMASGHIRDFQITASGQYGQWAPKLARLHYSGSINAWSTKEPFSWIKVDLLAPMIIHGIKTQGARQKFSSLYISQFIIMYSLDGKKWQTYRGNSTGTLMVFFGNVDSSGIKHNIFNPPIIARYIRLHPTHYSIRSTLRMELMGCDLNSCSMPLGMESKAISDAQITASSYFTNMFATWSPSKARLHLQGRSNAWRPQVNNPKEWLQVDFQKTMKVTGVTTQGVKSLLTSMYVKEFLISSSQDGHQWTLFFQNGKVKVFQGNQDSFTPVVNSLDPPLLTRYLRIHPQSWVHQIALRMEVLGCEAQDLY

B1: FIXa variant D104N/K106S/I251S/R318Y/R338E/R403E/E410N (enzyme)
light: YNSGKLEEFVQGNLERECMEEKCSFEEAREVFENTERTTEFWKQYVDGDQCESNPCLNGGSCKDDINSYECWCPFGFEGKNCELDVTCNIKNGRCEQFCKNSANNSVVCSCTEGYRLAENQKSCEPAVPFPCGRVSVSQTSKLTR
heavy: VVGGEDAKPGQFPWQVVLNGKVDAFCGGSIVNEKWIVTAAHCVETGVKITVVAGEHNIEETEHTEQKRNVSRIIPHHNYNAAINKYNHDIALLELDEPLVLNSYVTPICIADKEYTNIFLKFGSGYVSGWGRVFHKGYSALVLQYLRVPLVDRATCLESTKFTIYNNMFCAGFHEGGRDSCQGDSGGPHVTEVEGTSFLTGIISWGEECAMKGKYGIYTKVSEYVNWIKNKTKLT
B2: FIXa variant I251S/R318Y/R338E/E410N (enzyme)
light: B1 light with N104D, S106K
heavy: B1 heavy with E223R
notes: also called I86S/R150Y/R170E/E240N; I251S/R318Y/E410N/R338E
B3: FIXa-K247N/N249S/R318Y/R338E/E410N (enzyme)
chain 1: B1 light with N104D, S106K
chain 2: B1 heavy with K67N, N69S, S71I, E223R
notes: also called K82N/N84S/R150Y/R170E/E240N
B4: FIXa-I251S/R318Y/R338E/E410N (enzyme)
chain 1: B1 light with N104D, S106K
chain 2: B1 heavy with E223R
notes: as for B2
B5: FIXa-D104N/K106S/I251S/R318Y/R338E/E410N (enzyme)
chain 1: B1 light
chain 2: B1 heavy with E223R
B6: FIXa variant R318Y/R338E/R403E/E410S (enzyme)
light: B1 light with N104D, S106K
heavy: B1 heavy with S71I, N230S
notes: also called R150Y/R170E/R233E/E240S
B7: FIXa variant R318Y/R338E/T343R/N346D/R403E/E410N (enzyme)
light: B1 light with N104D, S106K
heavy: B1 heavy with S71I, T163R, N166D
notes: also called R150Y/R170E/T175R/N178D/R233E/E240N
B8: FIXa variant R318Y/R338E/T343R/R403E/E410N (enzyme)
light: B1 light with N104D, S106K
heavy: B1 heavy with S71I, T163R
notes: also called R150Y/R170E/T175R/R233E/E240N
B9: FIXa-D104N/K106S/Y155F/K228N/K247N/N249S (enzyme)
chain 1: B1 light
chain 2: B1 heavy with K48N, K67N, N69S, S71I, Y138R, E158R, E223R, N230E
B10: FIXa variant R318Y/R338E/E410S (enzyme)
light: B1 light with N104D, S106K
heavy: B1 heavy with S71I, E223R, N230S
notes: also called R150Y/R170E/E240S
B11: FIXa variant D104N/K106S/K247N/N249S/R318Y/R338E/R403E/E410N (enzyme)
light: B1 light
heavy: B1 heavy with K67N, N69S, S71I
B12: FIXa variant R318Y/R338E/E410N/T412V (enzyme)
light: B1 light with N104D, S106K
heavy: B1 heavy with S71I, E223R, T232V
notes: also called R150Y/R170E/E240N/T242V
B13: FIXa variant R318Y/R338E/N346D/R403E/E410N (enzyme)
light: B1 light with N104D, S106K
heavy: B1 heavy with S71I, N166D
notes: also called R150Y/R170E/N178D/R233E/E240N
B14: FIXa-R318Y/R338E/E410N/T412V (enzyme)
chain 1: B1 light with N104D, S106K
chain 2: B1 heavy with S71I, E223R, T232V
notes: as for B12
B15: FIXa variant Y259F/K265T/Y345T (enzyme)
light: B1 light with N104D, S106K
heavy: B1 heavy with S71I, Y79F, K85T, Y138R, E158R, Y165T, E223R, N230E
notes: also called Y94F/K98T/Y177T
B16: FIXa-K247N/N249S/R318Y/R338E/R403E/E410N (enzyme)
chain 1: B1 light with N104D, S106K
chain 2: B1 heavy with K67N, N69S, S71I
notes: also called K82N/N84S/R150Y/R170E/R233E/E240N
B17: FIXa variant Y155F/K247N/N249S/R318Y/R338E/E410N (enzyme)
light: B1 light with N104D, S106K
heavy: B1 heavy with K67N, N69S, S71I, E223R
B18: FIXa variant K247N/N249S/N260S/R318Y/R338E/R403E/E410N (enzyme)
light: B1 light with N104D, S106K
heavy: B1 heavy with K67N, N69S, S71I, N80S
notes: also called K82N/N84S/N95S/R150Y/R170E/R233E/E240N
B19: FIXa variant K228N/K247N/N249S (enzyme)
light: B1 light with N104D, S106K
heavy: B1 heavy with K48N, K67N, N69S, S71I, Y138R, E158R, E223R, N230E
notes: also called K63N/K82N/N84S
B20: FIXa-A103N/N105S/K247N/N249S/R318Y/R338E/R403E/E410N (enzyme)
chain 1: B1 light with A103N, N104D, N105S, S106K
chain 2: B1 heavy with K67N, N69S, S71I
B21: FIXa variant R318Y/R338E/N346Y/R403E/E410N (enzyme)
light: B1 light with N104D, S106K
heavy: B1 heavy with S71I, N166Y
notes: also called R150Y/R170E/N178Y/R233E/E240N
B22: FIXa-D104N/K106S/K228N/K247N/N249S (enzyme)
chain 1: B1 light
chain 2: B1 heavy with K48N, K67N, N69S, S71I, Y138R, E158R, E223R, N230E
B23: FIXa variant K228N/K247N/N249S/R318Y/R338E/R403E/E410N (enzyme)
light: B1 light with N104D, S106K
heavy: B1 heavy with K48N, K67N, N69S, S71I
notes: also called K63N/K82N/N84S/R150Y/R170E/R233E/E240N
B24: FIXa variant K247N/N249S/N260S (enzyme)
light: B1 light with N104D, S106K
heavy: B1 heavy with K67N, N69S, S71I, N80S, Y138R, E158R, E223R, N230E
notes: also called K82N/N84S/N95S
B25: FIXa variant R318Y/R338E/T343R/N346Y/R403E/E410N (enzyme)
light: B1 light with N104D, S106K
heavy: B1 heavy with S71I, T163R, N166Y
notes: also called R150Y/R170E/T175R/N178Y/R233E/E240N
B26: FIXa variant R318Y/R338E/R403E/E410N/T412V (enzyme)
light: B1 light with N104D, S106K
heavy: B1 heavy with S71I, T232V
notes: also called R150Y/R170E/R233E/E240N/T242V
B27: FIXa variant I251S/R318Y/R338E/R403E/E410N (enzyme)
light: B1 light with N104D, S106K
heavy: B1 heavy
notes: also called I86S/R150Y/R170E/R233E/E240N
B28: FIXa variant Y155F/K228N/R318Y/R338E/R403E/E410N (enzyme)
light: B1 light with N104D, S106K
heavy: B1 heavy with K48N, S71I
B29: FIXa variant Y155F/K247N/N249S/N260S (enzyme)
light: B1 light with N104D, S106K
heavy: B1 heavy with K67N, N69S, S71I, N80S, Y138R, E158R, E223R, N230E

What was measured:
[1] = molecular target: T1, Factor VIIIa (FVIIIa), from recombinant …; assay: apparent functional KD (KD-app): FX activation rate vs FVIIIa titration, fluorogenic Xase assay with PC/PS vesicles and Ca2+
Source text: (§1) The activity of alpha-thrombin was then quenched by the addition of a highly specific thrombin inhibitor, hirudin, prior to initiating the assay.

[2] = molecular target: T1, Factor VIIIa (FVIIIa), from recombinant …; assay: ratio of KD-app of Catalyst Biosciences WT FIXa to KD-app of the variant, same Xase assay
Source text: as §1

[3] = molecular target: T2, plasma purified human AT-III (antithrombin III) (human, UniProt P01008 33-464); assay: K0.5: AT-III/UFH titrated on FIXa, residual activity on fluorogenic substrate
T2 construct: also called AT-III/UFH (in complex with unfractionated heparin)

Binder	Kd [1] [nM]	KD-WT/KD-mut [2] [fold]	IC50 [3] [nM]
B1	54.7	1.7	–
B2	5.7	16.7	–
B3	–	–	1510
B4	–	–	5860
B5	–	–	8980
B6	53.1	1.8	–
B7	76.2	1.3	–
B8	14.5	6.6	–
B9	–	–	32
B10	6.8	14.1	–
B11	87.4	1.1	–
B12	8.9	10.7	–
B13	110	0.9	–
B14	–	–	4870
B15	115	0.8	–
B16	–	–	8080
B17	7.4	12.8	–
B18	65	1.5	–
B19	113	0.8	–
B20	–	–	2500
B21	39.6	2.4	–
B22	–	–	41
B23	100	0.9	–
B24	147	0.6	–
B25	15.6	6.1	–
B26	55	1.7	–
B27	62.7	1.5	–
B28	31.2	3.1	–
B29	167	0.6	–

Source: patent US20210238260A1 (published 2021)
